Sequences and labels used below:
B1: Compound A56 (peptide)
peptide: YSHGTFTSDYSKYLD[Aib]KRAQEFV[Aib]WLEDEPKSKAPPPS-OH
modifications: N-terminus assumed
SMILES: CC(C)C[C@H](NC(=O)[C@H](Cc1ccc(O)cc1)NC(=O)[C@H](CCCCN)NC(=O)[C@H](CO)NC(=O)[C@H](Cc1ccc(O)cc1)NC(=O)[C@H](CC(=O)O)NC(=O)[C@H](CO)NC(=O)[C@@H](NC(=O)[C@H](Cc1ccccc1)NC(=O)[C@@H](NC(=O)CNC(=O)[C@H](Cc1c[nH]cn1)NC(=O)[C@H](CO)NC(=O)[C@@H](N)Cc1ccc(O)cc1)[C@@H](C)O)[C@@H](C)O)C(=O)N[C@@H](CC(=O)O)C(=O)NC(C)(C)C(=O)N[C@@H](CCCCN)C(=O)N[C@@H](CCCNC(=N)N)C(=O)N[C@@H](C)C(=O)N[C@@H](CCC(N)=O)C(=O)N[C@@H](CCC(=O)O)C(=O)N[C@@H](Cc1ccccc1)C(=O)N[C@H](C(=O)NC(C)(C)C(=O)N[C@@H](Cc1c[nH]c2ccccc12)C(=O)N[C@@H](CC(C)C)C(=O)N[C@@H](CCC(=O)O)C(=O)N[C@@H](CC(=O)O)C(=O)N[C@@H](CCC(=O)O)C(=O)N1CCC[C@H]1C(=O)N[C@@H](CCCCN)C(=O)N[C@@H](CO)C(=O)N[C@@H](CCCCN)C(=O)N[C@@H](C)C(=O)N1CCC[C@H]1C(=O)N1CCC[C@H]1C(=O)N1CCC[C@H]1C(=O)N[C@@H](CO)C(=O)O)C(C)C
B2: Compound A55 (peptide)
peptide: YSHGTFTSDYSKYLD[Aib]KRAQEFV[Aib]WLEDEPSSKSPPPS-OH
modifications: N-terminus assumed
SMILES: CC(C)C[C@H](NC(=O)[C@H](Cc1ccc(O)cc1)NC(=O)[C@H](CCCCN)NC(=O)[C@H](CO)NC(=O)[C@H](Cc1ccc(O)cc1)NC(=O)[C@H](CC(=O)O)NC(=O)[C@H](CO)NC(=O)[C@@H](NC(=O)[C@H](Cc1ccccc1)NC(=O)[C@@H](NC(=O)CNC(=O)[C@H](Cc1c[nH]cn1)NC(=O)[C@H](CO)NC(=O)[C@@H](N)Cc1ccc(O)cc1)[C@@H](C)O)[C@@H](C)O)C(=O)N[C@@H](CC(=O)O)C(=O)NC(C)(C)C(=O)N[C@@H](CCCCN)C(=O)N[C@@H](CCCNC(=N)N)C(=O)N[C@@H](C)C(=O)N[C@@H](CCC(N)=O)C(=O)N[C@@H](CCC(=O)O)C(=O)N[C@@H](Cc1ccccc1)C(=O)N[C@H](C(=O)NC(C)(C)C(=O)N[C@@H](Cc1c[nH]c2ccccc12)C(=O)N[C@@H](CC(C)C)C(=O)N[C@@H](CCC(=O)O)C(=O)N[C@@H](CC(=O)O)C(=O)N[C@@H](CCC(=O)O)C(=O)N1CCC[C@H]1C(=O)N[C@@H](CO)C(=O)N[C@@H](CO)C(=O)N[C@@H](CCCCN)C(=O)N[C@@H](CO)C(=O)N1CCC[C@H]1C(=O)N1CCC[C@H]1C(=O)N1CCC[C@H]1C(=O)N[C@@H](CO)C(=O)O)C(C)C
B3: Compound A62 (peptide)
peptide: YTHGTFTSDYSKYLD[Aib]KRAQEFV[Aib]WLEDEPSSGAPPPS-OH
modifications: N-terminus assumed
SMILES: CC(C)C[C@H](NC(=O)[C@H](Cc1ccc(O)cc1)NC(=O)[C@H](CCCCN)NC(=O)[C@H](CO)NC(=O)[C@H](Cc1ccc(O)cc1)NC(=O)[C@H](CC(=O)O)NC(=O)[C@H](CO)NC(=O)[C@@H](NC(=O)[C@H](Cc1ccccc1)NC(=O)[C@@H](NC(=O)CNC(=O)[C@H](Cc1c[nH]cn1)NC(=O)[C@@H](NC(=O)[C@@H](N)Cc1ccc(O)cc1)[C@@H](C)O)[C@@H](C)O)[C@@H](C)O)C(=O)N[C@@H](CC(=O)O)C(=O)NC(C)(C)C(=O)N[C@@H](CCCCN)C(=O)N[C@@H](CCCNC(=N)N)C(=O)N[C@@H](C)C(=O)N[C@@H](CCC(N)=O)C(=O)N[C@@H](CCC(=O)O)C(=O)N[C@@H](Cc1ccccc1)C(=O)N[C@H](C(=O)NC(C)(C)C(=O)N[C@@H](Cc1c[nH]c2ccccc12)C(=O)N[C@@H](CC(C)C)C(=O)N[C@@H](CCC(=O)O)C(=O)N[C@@H](CC(=O)O)C(=O)N[C@@H](CCC(=O)O)C(=O)N1CCC[C@H]1C(=O)N[C@@H](CO)C(=O)N[C@@H](CO)C(=O)NCC(=O)N[C@@H](C)C(=O)N1CCC[C@H]1C(=O)N1CCC[C@H]1C(=O)N1CCC[C@H]1C(=O)N[C@@H](CO)C(=O)O)C(C)C
B4: Compound A58 (peptide)
peptide: YSHGTFTSDYSKYLD[Aib]KRAQEFV[Aib]WLEDEPKSKSPPPS-OH
modifications: N-terminus assumed
SMILES: CC(C)C[C@H](NC(=O)[C@H](Cc1ccc(O)cc1)NC(=O)[C@H](CCCCN)NC(=O)[C@H](CO)NC(=O)[C@H](Cc1ccc(O)cc1)NC(=O)[C@H](CC(=O)O)NC(=O)[C@H](CO)NC(=O)[C@@H](NC(=O)[C@H](Cc1ccccc1)NC(=O)[C@@H](NC(=O)CNC(=O)[C@H](Cc1c[nH]cn1)NC(=O)[C@H](CO)NC(=O)[C@@H](N)Cc1ccc(O)cc1)[C@@H](C)O)[C@@H](C)O)C(=O)N[C@@H](CC(=O)O)C(=O)NC(C)(C)C(=O)N[C@@H](CCCCN)C(=O)N[C@@H](CCCNC(=N)N)C(=O)N[C@@H](C)C(=O)N[C@@H](CCC(N)=O)C(=O)N[C@@H](CCC(=O)O)C(=O)N[C@@H](Cc1ccccc1)C(=O)N[C@H](C(=O)NC(C)(C)C(=O)N[C@@H](Cc1c[nH]c2ccccc12)C(=O)N[C@@H](CC(C)C)C(=O)N[C@@H](CCC(=O)O)C(=O)N[C@@H](CC(=O)O)C(=O)N[C@@H](CCC(=O)O)C(=O)N1CCC[C@H]1C(=O)N[C@@H](CCCCN)C(=O)N[C@@H](CO)C(=O)N[C@@H](CCCCN)C(=O)N[C@@H](CO)C(=O)N1CCC[C@H]1C(=O)N1CCC[C@H]1C(=O)N1CCC[C@H]1C(=O)N[C@@H](CO)C(=O)O)C(C)C
B5: Compound A57 (peptide)
peptide: YSHGTFTSDYSKYLD[Aib]KRAQEFV[Aib]WLEDEPKSKQPPPS-OH
modifications: N-terminus assumed
SMILES: CC(C)C[C@H](NC(=O)[C@H](Cc1ccc(O)cc1)NC(=O)[C@H](CCCCN)NC(=O)[C@H](CO)NC(=O)[C@H](Cc1ccc(O)cc1)NC(=O)[C@H](CC(=O)O)NC(=O)[C@H](CO)NC(=O)[C@@H](NC(=O)[C@H](Cc1ccccc1)NC(=O)[C@@H](NC(=O)CNC(=O)[C@H](Cc1c[nH]cn1)NC(=O)[C@H](CO)NC(=O)[C@@H](N)Cc1ccc(O)cc1)[C@@H](C)O)[C@@H](C)O)C(=O)N[C@@H](CC(=O)O)C(=O)NC(C)(C)C(=O)N[C@@H](CCCCN)C(=O)N[C@@H](CCCNC(=N)N)C(=O)N[C@@H](C)C(=O)N[C@@H](CCC(N)=O)C(=O)N[C@@H](CCC(=O)O)C(=O)N[C@@H](Cc1ccccc1)C(=O)N[C@H](C(=O)NC(C)(C)C(=O)N[C@@H](Cc1c[nH]c2ccccc12)C(=O)N[C@@H](CC(C)C)C(=O)N[C@@H](CCC(=O)O)C(=O)N[C@@H](CC(=O)O)C(=O)N[C@@H](CCC(=O)O)C(=O)N1CCC[C@H]1C(=O)N[C@@H](CCCCN)C(=O)N[C@@H](CO)C(=O)N[C@@H](CCCCN)C(=O)N[C@@H](CCC(N)=O)C(=O)N1CCC[C@H]1C(=O)N1CCC[C@H]1C(=O)N1CCC[C@H]1C(=O)N[C@@H](CO)C(=O)O)C(C)C
B6: Compound A59 (peptide)
peptide: YSHGTFTSDYSKYLD[Aib]KRAQEFV[Aib]WLEDEPSSKQPPPS-OH
modifications: N-terminus assumed
SMILES: CC(C)C[C@H](NC(=O)[C@H](Cc1ccc(O)cc1)NC(=O)[C@H](CCCCN)NC(=O)[C@H](CO)NC(=O)[C@H](Cc1ccc(O)cc1)NC(=O)[C@H](CC(=O)O)NC(=O)[C@H](CO)NC(=O)[C@@H](NC(=O)[C@H](Cc1ccccc1)NC(=O)[C@@H](NC(=O)CNC(=O)[C@H](Cc1c[nH]cn1)NC(=O)[C@H](CO)NC(=O)[C@@H](N)Cc1ccc(O)cc1)[C@@H](C)O)[C@@H](C)O)C(=O)N[C@@H](CC(=O)O)C(=O)NC(C)(C)C(=O)N[C@@H](CCCCN)C(=O)N[C@@H](CCCNC(=N)N)C(=O)N[C@@H](C)C(=O)N[C@@H](CCC(N)=O)C(=O)N[C@@H](CCC(=O)O)C(=O)N[C@@H](Cc1ccccc1)C(=O)N[C@H](C(=O)NC(C)(C)C(=O)N[C@@H](Cc1c[nH]c2ccccc12)C(=O)N[C@@H](CC(C)C)C(=O)N[C@@H](CCC(=O)O)C(=O)N[C@@H](CC(=O)O)C(=O)N[C@@H](CCC(=O)O)C(=O)N1CCC[C@H]1C(=O)N[C@@H](CO)C(=O)N[C@@H](CO)C(=O)N[C@@H](CCCCN)C(=O)N[C@@H](CCC(N)=O)C(=O)N1CCC[C@H]1C(=O)N1CCC[C@H]1C(=O)N1CCC[C@H]1C(=O)N[C@@H](CO)C(=O)O)C(C)C
B7: Compound A60 (peptide)
peptide: YTHGTFTSDYSKYLD[Aib]KRAQEFV[Aib]WLEDEPSSGKPPPS-OH
modifications: N-terminus assumed
SMILES: CC(C)C[C@H](NC(=O)[C@H](Cc1ccc(O)cc1)NC(=O)[C@H](CCCCN)NC(=O)[C@H](CO)NC(=O)[C@H](Cc1ccc(O)cc1)NC(=O)[C@H](CC(=O)O)NC(=O)[C@H](CO)NC(=O)[C@@H](NC(=O)[C@H](Cc1ccccc1)NC(=O)[C@@H](NC(=O)CNC(=O)[C@H](Cc1c[nH]cn1)NC(=O)[C@@H](NC(=O)[C@@H](N)Cc1ccc(O)cc1)[C@@H](C)O)[C@@H](C)O)[C@@H](C)O)C(=O)N[C@@H](CC(=O)O)C(=O)NC(C)(C)C(=O)N[C@@H](CCCCN)C(=O)N[C@@H](CCCNC(=N)N)C(=O)N[C@@H](C)C(=O)N[C@@H](CCC(N)=O)C(=O)N[C@@H](CCC(=O)O)C(=O)N[C@@H](Cc1ccccc1)C(=O)N[C@H](C(=O)NC(C)(C)C(=O)N[C@@H](Cc1c[nH]c2ccccc12)C(=O)N[C@@H](CC(C)C)C(=O)N[C@@H](CCC(=O)O)C(=O)N[C@@H](CC(=O)O)C(=O)N[C@@H](CCC(=O)O)C(=O)N1CCC[C@H]1C(=O)N[C@@H](CO)C(=O)N[C@@H](CO)C(=O)NCC(=O)N[C@@H](CCCCN)C(=O)N1CCC[C@H]1C(=O)N1CCC[C@H]1C(=O)N1CCC[C@H]1C(=O)N[C@@H](CO)C(=O)O)C(C)C

Where no end group is shown, it is not given here. [ ]: non-standard residue; d: D form. Aib = CC(C)(N)C(=O)O

Chain of human GLP-1 receptor (GLP-1R) (P43220 24-463): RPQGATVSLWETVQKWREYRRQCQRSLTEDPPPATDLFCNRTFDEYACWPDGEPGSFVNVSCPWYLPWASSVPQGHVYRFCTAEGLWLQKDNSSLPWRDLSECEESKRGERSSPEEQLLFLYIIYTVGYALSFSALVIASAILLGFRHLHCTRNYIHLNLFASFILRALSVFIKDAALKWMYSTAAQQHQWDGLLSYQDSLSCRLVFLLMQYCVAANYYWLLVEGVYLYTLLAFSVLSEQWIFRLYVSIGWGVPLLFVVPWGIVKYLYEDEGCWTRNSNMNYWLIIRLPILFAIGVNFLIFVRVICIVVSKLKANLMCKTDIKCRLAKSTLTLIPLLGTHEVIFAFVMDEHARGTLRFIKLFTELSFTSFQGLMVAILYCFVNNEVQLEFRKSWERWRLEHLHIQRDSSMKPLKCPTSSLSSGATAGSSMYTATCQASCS

The first test concerns the target human GLP-1 receptor (GLP-1R) (human, UniProt P43220 24-463). Kind of test: cell-based or functional assay.
For B1, the “hGLP1 pEC50 (cAMP)” value was less than 9 pEC50.
Still for that read-out and setting: in the case of B2 it was less than 9 pEC50; in that of B3, less than 9 pEC50.
Take B4: the “hGLP1 pEC50 (cAMP)” value is less than 9 pEC50.
Still for that read-out and setting: in the case of B5 it was less than 9 pEC50; in that of B6, less than 9 pEC50.
Turning to YSHGTFTSDYSKYLDSARAQEFVKWLEDEPSSGKPPPS-OH [Compound A61], the “hGLP1 pEC50 (cAMP)” value was less than 9 pEC50.
Turning to B7, the “hGLP1 pEC50 (cAMP)” value is less than 9 pEC50.

Another test concerns the target human glucagon receptor (GCGR) (human, UniProt P47871 26-477). The experiment in a line: cell-based or functional assay.
With B1, the “hGCGR pEC50 (cAMP)” value was determined as 12.3 pEC50.
B2: the “hGCGR pEC50 (cAMP)” value turned out to be 12.2 pEC50.
Same read-out and setting: in the case of B3 it was 11.5 pEC50; in that of B4, 12.2 pEC50.
The same measure, in the same setting: as for B5, the figure is 12 pEC50; as for B6, 12.2 pEC50; as for YSHGTFTSDYSKYLDSARAQEFVKWLEDEPSSGKPPPS-OH [Compound A61], 11.4 pEC50.
Same read-out and setting: as for B7, the figure is 11.3 pEC50.

(Values after patent US20180009871A1 (INTARCIA THERAPEUTICS, published 2018).)
